Source: PMC6805918, “Extracellular pyridine nucleotides trigger plant systemic immunity through a lectin receptor kinase/BAK1 complex” (Nature Communications, 2019)

Biological target: T1, GST-BAK1KD (cytoplasmic kinase domain of BAK1, AAs 250-615, fused to GST) (Arabidopsis thaliana, UniProt Q94F62 250-615)
T1 construct: BRASSINOSTEROID …1-ASSOCIATED KINASE1 (BAK1), Arabidopsis thaliana, cytoplasmic kinase domain, amino acids 250-615; Cloned into the EcoRI/SalI site of pGEX-4T-1; source: E. coli BL21(DE3), purified; not shown: GST, N-terminal, kept
T1 sequence (looked up): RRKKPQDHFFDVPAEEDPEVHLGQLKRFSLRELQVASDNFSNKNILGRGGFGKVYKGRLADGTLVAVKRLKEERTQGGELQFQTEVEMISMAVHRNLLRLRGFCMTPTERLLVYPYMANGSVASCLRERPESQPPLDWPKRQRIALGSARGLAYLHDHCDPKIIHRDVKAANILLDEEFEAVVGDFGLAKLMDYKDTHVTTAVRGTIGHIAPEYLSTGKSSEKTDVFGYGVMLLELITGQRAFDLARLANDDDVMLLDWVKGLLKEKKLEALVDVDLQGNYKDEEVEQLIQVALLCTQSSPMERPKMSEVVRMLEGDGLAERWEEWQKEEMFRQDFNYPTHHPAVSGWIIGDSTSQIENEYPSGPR
Assay: pull-down; 1 μg MBP or MBP-LecRK-VI.2KD incubated with 1 μg GST-BAK1KD in 20 mM Tris-HCl, 200 mM NaCl, 1 mM EDTA, pH 7.4, 4 °C; pulled down with amylose resin beads; washes with 0.6% Triton X-100; immunoblot with anti-MBP and anti-GST
Settings: both partners purified

- binding result: binds
B1: MBP-LecRK-VI.2KD (cytoplasmic kinase domain of LecRK-VI.2, AAs 331-682, fused to maltose-binding protein) (domain or fragment, Arabidopsis thaliana, UniProt Q9M021 331-682, looked up)
chain: FVMYKKRLGQEETLEDWEIDHPRRLRYRDLYVATDGFKKTGIIGTGGFGTVFKGKLPNSDPIAVKKIIPSSRQGVREFVAEIESLGKLRHKNLVNLQGWCKHKNDLLLIYDYIPNGSLDSLLYTVPRRSGAVLSWNARFQIAKGIASGLLYLHEEWEKIVIHRDVKPSNVLIDSKMNPRLGDFGLARLYERGTLSETTALVGTIGYMAPELSRNGNPSSASDVFAFGVLLLEIVCGRKPTDSGTFFLVDWVMELHANGEILSAIDPRLGSGYDGGEARLALAVGLLCCHQKPASRPSMRIVLRYLNGEENVPEIDDEWGYSKSSRSEFGSKLVGYVSSTSITRVSSTSRISQ
notes: lectin receptor kinase LecRK-VI.2, Arabidopsis thaliana, gene At5g01540, cytoplasmic kinase domain, amino acids 331-682; Cloned into the BamHI/SalI site of pMAL-p2X; source: E. coli BL21(DE3), purified; not shown: MBP, N-terminal, kept
